The target in the experiment is T1, 6×His::UNC-84(912–1,111) (C. elegans, UniProt Q20745 912-1111).
T1 sequence (looked up): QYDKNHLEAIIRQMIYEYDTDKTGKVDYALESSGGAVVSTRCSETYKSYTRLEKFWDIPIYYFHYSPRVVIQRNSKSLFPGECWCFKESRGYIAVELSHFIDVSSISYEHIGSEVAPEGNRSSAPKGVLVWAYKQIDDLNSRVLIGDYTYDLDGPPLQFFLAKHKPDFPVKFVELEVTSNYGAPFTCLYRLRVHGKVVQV
In words: SEC.

As for ASILVLGFLVFIAWMFININSALNAPPNA (domain or fragment, C. elegans, UniProt Q23529 749-777, looked up) [MBP::ZYG-12(749–777)], the binding result was “binds”.
